The source of these data is the nanobody polyreactivity screen of Harvey et al. (2022).

This series can be described thus: yeast display, Sf9 membrane polyspecificity reagent, FACS + sequencing; frameworks hold sequencing errors. Summed up: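 Galactose-induced (36–48 hours) yeast carrying a synthetic nanobody display library were exposed to 10% biotinylated, detergent-solubilized Sf9 membrane reagent at 4 °C for 1 hour. FACS followed streptavidin microbead enrichment, using low and high (top ~1%) gates for expression (anti-HA) and reagent binding (streptavidin). Colony PCR, MiSeq 2 × 250 sequencing and CDR-length filtering followed. Labels for polyreactivity reflect the gate of origin.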
Consider “QVQLVESGGGLVQAGGSLRLSCAASGITFASNPMGWYRQAPGKERELVAAITRGDNTYYADSVKGRFTISRDNAKNTVYLQMNSLKPEDTAVYYCATEGYQIQYEHDYWGQGTQVTVSS”, for which the “polyreactivity (PSR sort gate)” value was “low polyreactivity”.
Consider “QVQLVESGGGLVQAGGSLRLSCAASGLIFYRNAMGWYRQAPGKERELVAGITRGSNTYYADSVKGRFTISRVNAKNTVYLQMNSLKPEDTAVYYCAAQVPVLQRAGNTRFGYWGQGTQVTVSS”, for which the “polyreactivity (PSR sort gate)” value is given as “low polyreactivity”.
Consider “QVQLVESGGGLVQAGGSLRLSCAASGSTFLGYDMGWYRHAPGKERELVATISKSGGSTHYADSVKGRFTISRDNAKNTVYLQMNSLKPEDTAVYYCAADYYQRYYKKSGEYDYWGQGTQVTVSS”, for which the “polyreactivity (PSR sort gate)” value is “low polyreactivity”.
“QVQLVESGGGLVHAGGSLRLSCAASGGTLYRYAMGWYRQAPGKERELVAGISSSGGRTYYADSVKGRFTISRDNAKNTVYLQMNSLKPEDTAVYYCAKYWVSSYDYWGQGTQVTVSS”: the “polyreactivity (PSR sort gate)” value was “high polyreactivity”.
Regarding “QVQLVESGGGLVQAGGSLRLSCAASGSIFYLYAMGWYRQAPGKERELVAAINFRGGSTYADSVKGRFTISRDNAKNTVYLQMNSLKPEDTAVYYCAAKADYRMNYWGQGTQVTVSS”, the “polyreactivity (PSR sort gate)” value is listed as “high polyreactivity”.
In the case of “QVQLVESGGGLVQAGGSLRISCAASGFIFQYNTMGWYRQAPGKERELVAVITRTGSTNYADSVKGRFTISRDNAKNTVYLQMNSLKPEDTAVYFCATSFYSRPRKARYYYWGQGTQVTVSS” it was “high polyreactivity”; in that of “QVQLVESGGGLVQAGGSLRLSCAASGFIFQEYVMGWYRQAPGKERELVAAISRSGGRTYYADSVKGRFTISRDNAKNTVYLQMNSLKPEDTAVYYCAATYTKSHGVRYYHWGQGTQVTVSS”, “high polyreactivity”.
With “QVQLVESGGGLVQAGGSLRLSCDPSGSIFDGYGMGWYRQAPGKERELVASITWNDGSTYYADSVKGRFTISRDNAKNTVYLQMNSLKPEDTAVYYCAADQWGYEYDYWGQGTQVTVSS” the entry was “low polyreactivity”.
In the case of “QVHLVESGGGLVQAGGSLRLSCAASGFIFHLNSMGWYRQAPGTERELVAAFSWNGGSTFYADSVKGRFTISRDNAKNTVYLQMNSLKPEDTAVYYCNADFRPAYTYDYWGQGTQVTVSS” it was “low polyreactivity”.
“QVQLVESGGGLVQAGGSLRLSCAASGSIFYQYAMGWYRQAPGKERELVARIRGSTGTTYYADSVKGRFTFSRDYAKNTVYLQMNSLKPEDNAVYYCNAARYQGRSRFDYWGQGTQVTVSS”: the “polyreactivity (PSR sort gate)” value is “high polyreactivity”.
With “QVQLVESGGGLVQAGGSLRLSCAASGGTFSFYTMVWYRQAPGKERELVAAIDSTGRTNYADSVKGRFTISRDNAKNTVYLQMNSLKPEDTAVYYCAAGPPRADYDYWGQGTQVTVSS” the entry was “low polyreactivity”; with “QVQLVESGGGLVQAGGSLRLICAATGSTFVYNAMGWYRQAPGKEREFVAVINWSGGRTYADSVKGRFTISRDNAKNTVYLQMNSLKPEDTAVYYCNGERRTYRVALQYRRYDYWGQGTQVTVSS”, “high polyreactivity”; with “QGQLVESGGGLVQAGGSLRLSCAASGGIFLGNAMGWYRQAPGKERELVASITRGGDTSYADSVKGRFTISRDNAKNTVYLQMNCLKPEDTAVYYCNADYYSVVEYDYWGQGTQLTVSS”, “low polyreactivity”.
Turning to “QVQLVESGGGLVQAGGSLRLSCAASGRIFASYAMGWYRQAPGKERELVAAISWGDDSTYYADSVKGRFTISRDNAKNTVYLQMNSLKPEDTAVYYCAAAFWFGPYRLYYWGQGTQVTVSS”, the “polyreactivity (PSR sort gate)” value was “high polyreactivity”.
“QVQLVESGGGLVQAGGSLRLSCAASGRIFGYYAMGWYRQAPGKERELVAAITWGGGTTRYADSVKGRFTISRDNAKNTVYLQMNSLKPEDTAVYYCATALWVRYYGQGGYIRRYDYWGQGTQVTVSS”: the “polyreactivity (PSR sort gate)” value is “high polyreactivity”.
With “QVQLVESGGGLVQAGGSLRLSCAASGFTLVGYAMGWYRQAPGKERELVADINYSGGRTYYADSVKGRFTISRDNAKNTVYLQMNSLNPEDTAVYYCNAAGALSWFYYGYDYWGQGTQVTVSS” the entry was “low polyreactivity”; with “QVQLVESGGGLVQAGGSLRLSCAASGSTFGQYVMGWYRQAPGKERELVAAISSADSTNYADSVKGRFTISRDNAKNTVYLQMNSLKPEDTAVYYCAAARRPTYWPVYPYFGYEYWGQGTQVTVSS”, “low polyreactivity”.
Turning to “QVQLVESGGGLVQAGGSLRLSCAASGSTFSPYAMGGSRQAPGKEREVVAAINSGSSTNYADSVKGRFTISRDNAKNTVYFQMNSLKPEDTAVYYCAADGQLPPRGILASWEFDYWGQGTQVTVSS”, the “polyreactivity (PSR sort gate)” value is listed as “low polyreactivity”.
Take “QVQLVESGGGLVQAGGSLRLSCAASGGTFSNNAMGWYRQAPGKERELVAAISNSGGRTYYADSVKGRFTISRDNAKNTVYLQMNSLKPEDTAVYYCNVRRGYWHPGYGWANYDYWGQGTQVTVSS”: the “polyreactivity (PSR sort gate)” value is given as “high polyreactivity”.
In the case of “QVQLLESVGGLDQAGGSLRLSCAASGRTFKVYAMGWYRKATVKERELVAAISFSGGTTYYADSVKGRFTISRDNAKNTVYLQMNSLKQEDTAVSYCAAKRYGEYRARGYYYWGQGTQVTVSS” it was “high polyreactivity”; in that of “QVQLVESGGGLDQAGGSLRLSCAASGSTFYYYAMGWYRQAPGKERELVASISDDGSTNYADSVKGRFTISRDNAKNTVYLQMNSLKPEDTAVYYCAAVWWHQFGSAWYQMGYWGQGTQVTVSS”, “low polyreactivity”; in that of “QVKLVDSGGGLVQAGGSLRLSCAASGSIFAGYAMGWYRQEPGKVRELVAAINASGGSTYYADSVKGRFTISRDNAKNTVYLQMNSLKPEDTAVYYCNRVYKRYYIGGYDYWGQGTQLTVSS”, “high polyreactivity”.
With “QVQLVESGGGLVQAGGSLRLSCAASGRNFDWYAMGWYRQAPGKERELVAAISTSGANTYYADSVKGRFTISRDNAKNTVYLQMNSLKPEDTAVYYCATDPYQPYEGDYWGQGTLVTVSS” the entry was “low polyreactivity”; with “QVQLVESGGGLVQAGGSLRISCAASGSIFDTNPMGWYRQAPGKERELVAAITSSGASTYYADSVKGRFTISRDNAKNTVYLQMNSLKPEDTAVYYCAADGAVDGGYWGQGTQVTVSS”, “low polyreactivity”; with “QVQLVESGGGLVQAGGSLRLSCAASGFIFSRYTMGWYRQAPGKERELVAAISKRGGSTYYADSVKGRFTISRDNAKNTVYLQMNSLKPEDTAVYYCAADRLPSGSLVEYWGQGTQVTVSS”, “high polyreactivity”.
In the case of “QVQLVESGGGLVQAGGSLRLSCAASGSTFVRYAMGWYRQAPGKEREFVASITCRGGSTYYADSVKGRFTITRDNAKNTVYLQMNSLKPEDTAVYYCAARGREWYYWGQGTQVTVSS” it was “high polyreactivity”.
With “QVQLVESGGGLVQAGGSLRLSCAASGTIFRGNAMGWYRQAPGTERELVAAINKSGGSTYYADSVKGRFTISRDNAKNTVYLQMNSLKPEDTAVYYCAAVYKRLQPYGYWGQGTQVTVSS”, the “polyreactivity (PSR sort gate)” value is given as “high polyreactivity”.
“QVQLVESGVGLLQAGGSLRLSCADSGRIISGNAMVWYRQAPGKEREMVAAISSGGSTYYADSVKGRFTISRDNAMNTVYLQMNSLKPEATAVFYCNKRRGRKWPGNFSVVKLLMGSWGQGTQVTVSS”: the “polyreactivity (PSR sort gate)” value is “low polyreactivity”.
Take “QVQLVESGGGLVQEGGSLRLSCAASGSTFLKYDMGWYRQAPGNERELVAAISWDGGSTYYADSVKGRFTISRDNAKNTVYLQMNSLKPEDTAVYYCNADYDVYLTICYYYGEFDYWGQGTQVTVSS”: the “polyreactivity (PSR sort gate)” value was “low polyreactivity”.
With “QVQLVESGGGLVQAGGSLRLSCAASGLTFAYYVMGWYRQAPGKERELVATITRGGDTYYADSVKGRFTISRDNAKITVYLQMYSLKPEDTAVYYCNAYLRSGSMDYWGQGTQVTVSS” the entry was “high polyreactivity”.
